Experimental data: US20040058857A1, “Method of treating cancer” (priority 2003, published 2004)
Numbered stars: 1 amine (or outer) side, 2 acyl side, 3 side chain; on linkers, the order of the positions; unused ones are H or OH. Square brackets hold non-standard residues; d marks the D form. Peptide text beside a SMILES is read from it. * marks the point of attachment. X1 = COc1cccc2c1C(=O)c1c(O)c3c(c(O)c1C2=O)C[C@@](O)(C(=O)CO)C[C@@H]3OC1CC(N*)C(O)C(C)O1; Glutaryl = O=C(CCCC(=O)[*:2])[*:1]; Hyp = O=C(O)[C@@H]1C[C@@H](O)CN1; Chg = N[C@H](C(=O)O)C1CCCCC1

What was measured:
[1] = human, in vivo
Method: (§1) Compound B (as described in Example 2) is a peptide conjugate of doxorubicin (Dox) that is cleaved by PSA at prostate tumor cells to leucine-dox (Leu-dox) and Dox. Thirty-three patients with advanced hormone refractory prostate cancer were treated with Compound B. Nineteen patients were initially treated at escalating dose levels of 20 (n=1), 40 (n=3), 80 (n=4), 160 (n=2), 225 (n=6), and 315 mg/m^2 (n=2) in the phase I portion of the trial. An additional 14 patients were treated with 225 mg/m^2 with prednisone.

[2] = human, in vivo; remark: listed apart in the source
Method: as §1

clinical = conditions: male, human, in vivo, 225 mg/m2
Method: as §1

[3] = Clinical trial of Compound B: tolerability and dose limiting toxicity
Method: as §1

Row | Compound | metabolism in PK studies [1] | patients experiencing grade 3 fatigue [2] | AUC (clinical) | patients with dose limiting neutropenia ([3]; 315 mg/m^2 dose level) | tolerability ([3]; 33 patients with advanced hormone refractory prostate cancer) | recommended phase II dose ([3]; phase I dose escalation 20-315 mg/m^2) | mean AUC ([1]; 225 mg/m2)
1 | COc1cccc2c1C(=O)c1c(O)c3c(c(O)c1C2=O)C[C@@](O)(C(=O)CO)C[C@@H]3OC1CC(NC(=O)[C@H](CC(C)C)NC(=O)[C@H](CO)NC(=O)[C@H](CCC(N)=O)NC(=O)[C@@H](NC(=O)[C@H](CO)NC(=O)[C@H](C)NC(=O)[C@@H]2C[C@@H](O)CN2C(=O)CCCC(=O)O)C2CCCCC2)C(O)C(C)O1 (stereo partly drawn) [Compound B, [N-Glutaryl-(4-trans-L-Hyp)]-Ala-Ser-Chg-Gln-Ser-Leu-Dox] (Glutaryl-[Hyp]AS[Chg]QSL-X1; N-terminus and C-terminus assumed) | metabolized to Leu-dox and Dox | two | 6 µM·h | 2 patients | generally well tolerated | 225 mg/m^2 | 
2 | COc1cccc2c1C(=O)c1c(O)c3c(c(O)c1C2=O)C[C@@](O)(C(=O)CO)C[C@@H]3O[C@H]1C[C@H](NC(=O)[C@@H](N)CC(C)C)[C@H](O)[C@H](C)O1 [Leu-Dox, leucine-dox] |  |  |  |  |  |  | 4 µM·h
